Read-outs that look alike come from different tables or passages of the source.
Experiments:
Experiment in all cases: conjugate formation
[1] = target: HLA class I antigens of JY cells (human (endogenous in JY)) (UniProt P04439)
[2] = target: HLA class I antigens of JY cells (human (endogenous in JY)) (UniProt P04439); remark: listed apart in the source
[3] = target: HLA class I antigens of JY cells (human (endogenous in JY)) (UniProt P04439); remark: listed apart in the source

UniProt P04439, sequence (P04439 whole entry, looked up): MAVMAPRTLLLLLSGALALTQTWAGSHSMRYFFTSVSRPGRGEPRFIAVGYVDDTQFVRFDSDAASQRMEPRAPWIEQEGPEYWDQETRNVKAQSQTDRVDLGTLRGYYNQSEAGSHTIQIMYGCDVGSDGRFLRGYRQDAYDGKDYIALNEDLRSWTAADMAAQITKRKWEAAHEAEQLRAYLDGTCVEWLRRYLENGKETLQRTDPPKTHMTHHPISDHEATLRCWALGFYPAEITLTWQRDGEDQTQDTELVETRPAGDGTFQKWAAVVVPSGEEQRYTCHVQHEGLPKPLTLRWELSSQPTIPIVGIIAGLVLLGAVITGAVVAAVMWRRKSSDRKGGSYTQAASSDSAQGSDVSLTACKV

- percent conjugates [1]: 22%
- percent conjugates [2]: 29%
- percent conjugates [3]: 42%
Substance: CD8 (human CD8 expressed in the murine T cell hybridoma 16.T8-15) (from UniProt P01732 22-235) (receptor)

— paper PMC2189183
